Data from US12448429B2, “T cell receptors specific to b-cell maturation antigen for treatment of cancer” (Dana-Farber Cancer Institute, Inc., priority 2019, dated 2025).

How the values were obtained:
HLA-A2 [1] = target: T1, HLA-A2 (Homo sapiens, UniProt P04439, D140Y/D185E/D98H/E176V/E277Q/G131W/G231S/I119V/I121R/I166T/I218V/L300P/L318F/N151K/N90K/P208A/P217A/Q86G/Q94H/R138H/R169H/T345S); test: HLA-A2 binding affinity of BCMA peptides on T2 cells (HLA-A2 up-regulation, MFI by flow cytometry); conditions: for change of HLA-A2 binding affinity of heteroclitic peptide compared to its native peptide: T2 cells, FIG. 3, Example 12: n=3, p<0.05; for HLA-A2 binding affinity among the six native peptides: dose-dependent, Example 12; for HLA-A2 specificity (HLA-A2 binding capacity, MFI): six native BCMA peptides compared, T2 cells pulsed overnight with 0-200 μg/ml peptide, FIG. 2
T1 construct: endogenous in cells; host or cells: T2 cell line (human B and T cell hybrid), provided by Dr. J. Molldrem
Method: The listed BCMA peptides were evaluated for HLA-A2-specific binding capacity using the T2 cell line. In the assay, T2 cells were washed, resuspended in serum-free AIM-V medium to a final concentration of 1×10^6 cells/ml and transferred into wells of a 24-well tissue culture plate. The cells were pulsed with different concentrations of respective BCMA peptide (0-200 μg/ml) plus 3 μg/ml human […] (Sigma) and incubated at 37° C., 5% CO2 in humidified air. Following overnight incubation, the cells were washed, stained with mouse anti-human HLA-A2-FITC mAb for 15 minutes at 4° C., washed and analyzed using a FACSort™ flow cytometer with CellQuest™ v2.1 software (Becton Dickinson, San Jose, Calif.). […] Among the BCMA peptides evaluated, “#4. […] (FIG. 2).
(§1) The native and heteroclitic BCMA peptides were examined for HLA-A2 binding stability using the T2 cell line. T2 cells were pulsed with the respective peptide. After overnight incubation, the cells were washed to remove unbound peptide; they were evaluated for binding affinity as shown above and stability as following. The cells were incubated with 10 μg/ml Brefeldin A (Sigma) at 37° C. and 5% CO2 for 1 hour to block cell surface expression of newly synthesized HLA-A2 molecules. Peptide/HLA-A2 binding stability was evaluated at 0, 2, 4, 6 and 18 hours post-Brefeldin A treatment. Following the incubation period, the cells were harvested, washed, stained with mouse anti-human HLA-A2-FITC mAb and analyzed by flow cytometry. […] Therefore, the Heteroclitic #4 BCMA72-80 (YLMFLLRKI (SEQ ID NO: 37)) peptide was selected for further evaluation of its immunogenic potential to generate MM-specific cytotoxic T cells (CTLs).
(§2) T2 cells were pulsed overnight with various doses of peptide plus β2-microglobulin (3 μg/ml) (Sigma, St Louis, Mo.). Following overnight incubation, the cells were stained with HLA-A2-PE mAb and analyzed using a FACSCanto™ flow cytometer (BD). Peptide/HLA-A2 complex stability was measured on peptide loaded T2 cells at 0, 2, 4, 6 and 14 hours post-brefeldin A treatment by staining with HLA-A2-PE mAb and flow cytometric analysis.

HLA-A2 [2] = target: T1, HLA-A2; test: Peptide/HLA-A2 binding stability on peptide-pulsed T2 cells after Brefeldin A treatment; conditions: for HLA-A2 stability (and affinity) of heteroclitic peptides: 0, 2, 4, 6 and 14 hours post-brefeldin A, compared with native peptides and HIV-Gag77-85 positive control
Method: as §1, §2

[3] = listed as heteroclitic BCMA72-80

Row | Sequence | change of HLA-A2 binding affinity of heteroclitic peptide compared to its native peptide (HLA-A2 [1]) | HLA-A2 binding affinity among the six native peptides (HLA-A2 [1]) | HLA-A2 specificity (HLA-A2 binding capacity, MFI) (HLA-A2 [1]) | other results
1 | YQNEYFDSL [heteroclite BCMA9-17] | did not alter its HLA-A2 affinity status | – | – | –
2 | YILWTCLGL [Heteroclitic #5 BCMA54-62] | increased from their native peptide | – | – | HLA-A2 stability (and affinity) of heteroclitic peptides (HLA-A2 [2]): further enhanced; change of HLA-A2 binding affinity of heteroclitic peptide compared to its native peptide (HLA-A2 [1]; listed as heteroclitic hBCMA54-62): highest increase in HLA-A2 binding affinity
3 | AILWTCLGL [#5. BCMA54-62] | – | highest HLA-A2 binding affinity | second highest level | –

Continued, in another order:

Row | change of HLA-A2 binding affinity of heteroclitic peptide compared to its native peptide (HLA-A2 [1]) | HLA-A2 binding affinity among the six native peptides (HLA-A2 [1]) | HLA-A2 specificity (HLA-A2 binding capacity, MFI) (HLA-A2 [1]) | Sequence | other results
4 | increased from their native peptide | – | – | YLMFLLRKI [Heteroclitic #4 BCMA72-80] | HLA-A2 stability (and affinity) of heteroclitic peptides (HLA-A2 [2]; listed as BCMA72-80 (YLMFLLRKI (SEQ ID NO: 37))): highest level of HLA-A2 affinity and stability; HLA-A2 stability (and affinity) of heteroclitic peptides (HLA-A2 [2]; [3]): further enhanced; HLA-A2 binding stability compared to the native peptide (HLA-A2 [2]; 0, 2, 4, 6 and 18 hours post-Brefeldin A, 50 ug/ml, FIG. 4): significant improvement; change of HLA-A2 binding affinity of heteroclitic peptide compared to its native peptide (HLA-A2 [1]; [3]): highest increase in HLA-A2 binding affinity
5 | – | highest HLA-A2 binding affinity | highest level of HLA-A2 specificity | VLMFLLRKI [#4. BCMA72-80] | –
